This sample holds only a part of the variants without activity.
B1: TPR 5TU (parent)
chain: GGAUCUUCUCGAUCUAACAAAAAAGACAAAUCUGCCACAAAGCUUGAGAGCAUCUUCGGAUGCAGAGGCGGCAGCCUUCGGUGGCGCGAUAGCGCCAACGUUCUCAACUAUGACACGCAAAACGCGUGCUCCGUUGAAUGGAGUUUAUCAUG

Variants of: B1
Assay: polymerase ribozyme fitness, log enrichment relative to wild type (log ratio); higher = more active; in vitro selection for triplet polymerase activity
In short: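 Mutant libraries of each subunit of a heterodimeric triplet polymerase ribozyme were built by PCR and transcribed. Each library went through one round of in vitro selection in triplicate: annealing with biotinylated primer, partner subunit and triplets, frozen incubation at −7 °C, gel excision of extended constructs, streptavidin-bead capture and RT-PCR. Input and output libraries were Illumina-sequenced; only genotypes with ≥10 input reads and ≥1 read per output were kept. Fitness is log2(genotype enrichment/wild-type enrichment), using inverse-variance-weighted replicate averages.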

| Variant | polymerase ribozyme fitness (log ratio) |
| --- | --- |
| C72U A89U A122U U146A | -0.532 |
| C72G C93G C95U C118G A138C U145A | ≤ -4.2 |
| G74A A91C A115U G141A A147C U148G | ≤ -4.2 |
| C69G G84U A89U A122C U146C | -2.82 |
| A73U G83C C123G | -2.93 |
| C69U G81U | -2.07 |
| A73G C93U G152A | -2.84 |
| C72G C99G U139A | ≤ -4.2 |
| C72A A73U C85G A138C U148C | ≤ -4.2 |
| G70C C87A G140A | ≤ -4.2 |
| C69A A121G | -1.74 |
| A73U G84A | -2.32 |
| A73C G92A U101G | ≤ -4.2 |
| C69U G136U U146C | -2.94 |
| A73G G92C | -0.498 |
| A73G | 0.127 |
| A73U | -0.424 |
| A73C | -2.13 |
| G71U A89U C95A | -3.94 |
| A73C C93G | ≤ -4.2 |
| C69U G83A | -3.04 |
| C69U G83U | -0.933 |
| C72G U101G | ≤ -4.2 |
| C69A G70C | -3.18 |

| Variant | polymerase ribozyme fitness (log ratio) |
| --- | --- |
| A73C C85A A110C A119U G136U | ≤ -4.2 |
| C69U C87U G92C A150G | -3.27 |
| G70A C93A C103G | ≤ -4.2 |
| C69A G92U | -1.15 |
| A73U G83U A122C U127A | ≤ -4.2 |
| A73C U77C C93U | ≤ -4.2 |
| C69U C93U | -2.33 |
| C72U A73U G83A | -2.51 |
| G71C U102G G133C G141C | ≤ -4.2 |
| C69G A89U | -1.45 |
| G71A U144A A147C | ≤ -4.2 |
| C72U U104G A106G U144A | -4.01 |
| G70A C75U C87G C99G C103A G140U U144G U146G | ≤ -4.2 |
| C69U C76G U130A | ≤ -4.2 |
| G71C U77A U90C C103A U104G C131G | ≤ -4.2 |
| G71C C87A G128U C131U G152U | ≤ -4.2 |
| A73U A122G | -0.995 |
| A73G U134C | 0.53 |
| C69G C96U C103A | -3.44 |
| A73G G92A C99G G141U | ≤ -4.2 |
| A73U C85U C103G C105G C116U A142G | ≤ -4.2 |
| C69U A73U | -2.64 |
| C69G C96U A142C | -2.43 |
| C69U C85U U127G | -3.4 |

| Variant | polymerase ribozyme fitness (log ratio) |
| --- | --- |
| C69U C87A | ≤ -4.2 |
| G68U U134G | ≤ -4.2 |
| G71C U111G | ≤ -4.2 |
| G74A A122G | -3.39 |
| A73U C85A A147C | -2.75 |
| A73G G92A C132U G141C | ≤ -4.2 |
| C72G C99G | ≤ -4.2 |
| A73U U82A C95U | -1.04 |
| A73G U101C | 0.659 |
| C72G C99U U101G A142U | ≤ -4.2 |
| C69A C93U U102G A113U G117U U146A C149U | ≤ -4.2 |
| A73G A98G | 0.461 |
| A73U G126U | -0.661 |
| A73G C95G C96U G124U C149U G152A | ≤ -4.2 |
| G71C A73C C108U U146C C149G | ≤ -4.2 |
| G70A U78C G88U U104G A113G G128U U135A | ≤ -4.2 |
| C69U C85G C149U | -2.74 |
| C69A G70C A106G C131U A137C | ≤ -4.2 |
| A73U C75A G92A | ≤ -4.2 |
| C69U G84A A115G G117U G136C | ≤ -4.2 |
| C69A C85A G124U | -2.55 |
| A73U A91U A106C G136C | ≤ -4.2 |
| G71A G88A | ≤ -4.2 |
| A73G A98G U146G | -1.02 |

| Variant | polymerase ribozyme fitness (log ratio) |
| --- | --- |
| G70A C85U | -3.46 |
| G70A C85G | ≤ -4.2 |
| A73U C85U | -0.649 |
| G70C G80A | -3.94 |
| C72U U77C C96A A110G | ≤ -4.2 |
| A73U C76G G94A | ≤ -4.2 |
| A73G C93G U130C | -3.08 |
| C69U G86U C114U G141U | ≤ -4.2 |
| G71C G80C C95G U104G C116U | ≤ -4.2 |
| C69G C75G | -2.12 |
| A73G A142G | -1.38 |
| C72G G83A G100A | ≤ -4.2 |
| A73G G83C | -2.56 |
| A73G G126A | -0.377 |
| A73G C96U | -0.103 |
| A73G A91U | ≤ -4.2 |
| C72U G124A U146G | -1.3 |
| G71C C116U | -2.51 |
| A73U G84C C116A | -2.63 |
| G71U C85G U134G U139G | ≤ -4.2 |
| C69G G94A | -1.15 |
| C72U C93U U111C A119U A142G | ≤ -4.2 |
| C72U C85U C95U | -0.261 |
| C72G A147U | -3.16 |

| Variant | polymerase ribozyme fitness (log ratio) |
| --- | --- |
| A73G C85G | -1.1 |
| A73U C95U G140A A142C | ≤ -4.2 |
| A73G G80U G94U U102C U127C | ≤ -4.2 |
| C72G A91G C99G U144A | ≤ -4.2 |
| C69A C76G C79A U102A G141C | ≤ -4.2 |
| A73G U77G C103G G136U | ≤ -4.2 |
| C69A C85U C123A | -2.37 |
| C69G C93U | -3.1 |
| A73U C108A A110C G133A | ≤ -4.2 |
| A73G G143A | -0.82 |
| A73U G84A C108G G141A U145C | ≤ -4.2 |
| C69G G84A U101C | -2.05 |
| A73C G92C | -3.64 |
| A73C G141A | -3.8 |
| A73U A97G U130G | ≤ -4.2 |
| C72U A91U A106C A115G A119U G143A U145G U151G | ≤ -4.2 |
| C72A C93G C95G | ≤ -4.2 |
| G71C C129A | ≤ -4.2 |
| G71U G84A A106U C118A G152A | ≤ -4.2 |
| C72U C76A | -1.91 |
| G71U A73U A97G U145G | ≤ -4.2 |
| G70C G80A A91U U104C A120U | ≤ -4.2 |
| C69G C76A G152U | -4.17 |
| G70U C131U A137G | -4.05 |

| Variant | polymerase ribozyme fitness (log ratio) |
| --- | --- |
| C72U C93U A97U A115U | -3.88 |
| A73G A119C | -0.028 |
| A73U C75G U78A A89G C93G C95A U146G | ≤ -4.2 |
| C72G C105U | -3.5 |
| G70C G94C | -3.44 |
| A73G G86A A98U G117U C149U | -4.18 |
| G71C U109A U111G | ≤ -4.2 |
| C69G G83C | -4.05 |
| G70C A97G | -3.97 |
| C72U A98G U134C | -0.362 |
| C72U A89G C95A | -1.39 |
| C69U C96A | -1.12 |
| C69A A115U | -2.49 |
| C72U A98U | 0.351 |
| A73G C85U U102G G124A | ≤ -4.2 |
| A73U G84U G152A | -3.83 |
| C69U C85U | -1.39 |
| A73G C76U A142U | -2.11 |
| G70A A73G C79U G88C G133C A137C | ≤ -4.2 |
| G71A | -2.47 |
| G71U | -1.93 |
| G71C | -2.66 |
| G74A A115C | -3.73 |
| A73C C95U | -2.49 |

| Variant | polymerase ribozyme fitness (log ratio) |
| --- | --- |
| C69G C87A | ≤ -4.2 |
| C69U A98U | -1.15 |
| G71U G80C C95U U127A | -3.97 |
| A73G G94A U148C | -3.66 |
| C69G A121U | -2.04 |
| A73G U78A C116A A138G | ≤ -4.2 |
| G71A A107U G133C | ≤ -4.2 |
| C69A U82G | -1.91 |
| G71A C96G | -3.31 |
| G70A C99U U134G G140C G143C | ≤ -4.2 |
| C72U A73C A98G C118A G124C U135C U139A | ≤ -4.2 |
| A73U C96U G112A | ≤ -4.2 |
| C72A C125U | ≤ -4.2 |
| A73G A122U G126U | -0.405 |
| C69U C116U U135A G136U | -4.18 |
| A73C A142C | ≤ -4.2 |
| C69A C93G C103A U130A | ≤ -4.2 |
| A73G C85A G124A | -1.16 |
| C69A A120C | -1.7 |
| G70C G83A C87U G117C | -3.9 |
| A73G G141A | -0.252 |
| G70U G92U A98G A147C | ≤ -4.2 |
| A73U C87U G92A | 0.224 |

— the RNAGym collection of RNA variant scans (doi:10.1073/pnas.2313332121)
